According to patent US20160280748:

What was measured:
[1] = system: +36 GFP-(GGS)4-ALAL-(GGS)4-Cre-His6
[2] = system: +36 GFP-(GGS)4-ALAL-(GGS)4-mCherry-His6
Sequence of +36 GFP-(GGS)4-ALAL-(GGS)4-mCherry-His6 (chain, as listed by the source): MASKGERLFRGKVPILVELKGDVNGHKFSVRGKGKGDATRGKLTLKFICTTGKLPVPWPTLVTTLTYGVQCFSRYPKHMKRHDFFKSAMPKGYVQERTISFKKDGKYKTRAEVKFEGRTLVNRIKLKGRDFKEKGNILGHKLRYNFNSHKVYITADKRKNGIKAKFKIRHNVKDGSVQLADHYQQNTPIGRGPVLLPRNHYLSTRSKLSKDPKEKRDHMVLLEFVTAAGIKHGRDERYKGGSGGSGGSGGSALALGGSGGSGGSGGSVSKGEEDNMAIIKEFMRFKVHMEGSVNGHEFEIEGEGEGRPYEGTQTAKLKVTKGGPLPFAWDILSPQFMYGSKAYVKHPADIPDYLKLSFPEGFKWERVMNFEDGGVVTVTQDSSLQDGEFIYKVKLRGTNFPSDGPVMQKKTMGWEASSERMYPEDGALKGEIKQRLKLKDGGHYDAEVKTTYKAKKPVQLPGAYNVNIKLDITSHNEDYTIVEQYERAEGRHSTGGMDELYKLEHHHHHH

Sequence of +36 GFP-(GGS)4-ALAL-(GGS)4-Cre-His6 (chain, as listed by the source): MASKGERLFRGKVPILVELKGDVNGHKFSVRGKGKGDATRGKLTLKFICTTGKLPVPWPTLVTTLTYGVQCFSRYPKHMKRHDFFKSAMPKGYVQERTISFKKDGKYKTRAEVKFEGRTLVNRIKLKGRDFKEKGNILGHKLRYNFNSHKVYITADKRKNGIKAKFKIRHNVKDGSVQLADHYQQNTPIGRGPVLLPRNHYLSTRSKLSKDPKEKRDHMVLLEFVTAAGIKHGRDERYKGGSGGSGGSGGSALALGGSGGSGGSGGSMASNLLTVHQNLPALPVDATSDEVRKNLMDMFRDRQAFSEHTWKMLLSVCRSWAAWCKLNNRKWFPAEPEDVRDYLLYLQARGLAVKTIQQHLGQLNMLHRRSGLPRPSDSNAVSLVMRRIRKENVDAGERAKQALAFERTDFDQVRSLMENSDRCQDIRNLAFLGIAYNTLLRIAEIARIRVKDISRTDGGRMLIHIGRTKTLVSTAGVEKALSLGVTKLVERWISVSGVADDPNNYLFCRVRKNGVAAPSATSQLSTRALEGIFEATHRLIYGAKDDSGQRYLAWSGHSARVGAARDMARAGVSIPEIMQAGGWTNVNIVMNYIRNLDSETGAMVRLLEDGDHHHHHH

cathepsin B from human liver (Sigma)
cleavage of the fusion protein in vitro (gel) [1]: the +36 GFP-Cre fusion was indeed cleaved into two protein fragments with lengths consistent with separated +36 GFP and Cre
cleavage of the fusion protein in vitro (gel) [2]: Cleavage of +36 GFP-mCherry fusion. ... lane 4: +36 GFP-mCherry fusion after treatment with 500 ng cathepsin B for 45 min at 37 °C
